The values below come from US20250276081A1, “Mucin-Active Proteases and Methods of Use” (priority 2022, published 2025).

Broadly, the Kd is the concentration at which binding is half-saturated. A higher Kd goes with lower affinity.

The subject of test [1] is OVCAR-3 cells. The test can be described thus: Bioactive compound library screen and STACK cell death analysis ± StcE. The test is classed as cell-based. How it is done: Bioactive compound library screen. A library of 261 bioactive compounds (Selleck Chemicals) was stored at −80° C. The library was re-formatted from 96-well to 384-well format using a Versette automated liquid handler configured with a 96-channel pipetting head and diluted to 2 mM in DMSO. The day before the screen, 5×10^3 OVCAR-3^N cells/well were seeded into two 384-well plates in 45 μL of medium. The next day, the medium was removed and replaced with medium containing 20 nM Sytox Green and compounds from a freshly thawed library master stock plate (1 compound/well) were added to a final concentration of 500 nM. One plate was co-treated with vehicle (PBS) and the other with 50 nM StcE. Plates were imaged immediately and every 2 h thereafter for a total of 72 h using the Essen IncuCyte Zoom. Counts of Sytox Green and mKate^2 objects per mm^2 were obtained and the lethal fraction calculated as previously described^2. […] The Bliss Independence Model was used to compute expectant cell death of compound+ StcE treatment using normalized AUC (nAUC) values, and deviation from this expectation was used to infer modulation of cell death, as described previously^3.
Measuring cell death using STACK. Follow-up cell death experiments of OVCAR-3^N cells were performed using scalable time-lapse analysis of cell death kinetics (STACK) 2. […]

Test [2] has as its target mucin-1 (MUC1) (human) (UniProt P15941).
Test [3] concerns the target K562^HER2 cell surface.
For test [4], the target named is human epidermal growth factor receptor 2 (HER2) (human) (UniProt P04626).
The target in test [5] is Annexin A1 (ANXA1) (human) (UniProt P04083).
Test [6] has as its target CD29 (human) (UniProt P05556).
Test [7] deals with CD30 (human) (UniProt P28908).
Test [8] has as its target CD43 (sialophorin) (human) (UniProt P16150).
In test [9] the target is CD46 (human) (UniProt P15529).
For test [10], the target named is CD98 (human) (UniProt P08195).
Test [11] addresses CD236 (human) (UniProt P04921).
Test [12] concerns the target cell surface mucins on HeLa cells.

Chain of Annexin A1 (ANXA1) (human) (P04083 2-346): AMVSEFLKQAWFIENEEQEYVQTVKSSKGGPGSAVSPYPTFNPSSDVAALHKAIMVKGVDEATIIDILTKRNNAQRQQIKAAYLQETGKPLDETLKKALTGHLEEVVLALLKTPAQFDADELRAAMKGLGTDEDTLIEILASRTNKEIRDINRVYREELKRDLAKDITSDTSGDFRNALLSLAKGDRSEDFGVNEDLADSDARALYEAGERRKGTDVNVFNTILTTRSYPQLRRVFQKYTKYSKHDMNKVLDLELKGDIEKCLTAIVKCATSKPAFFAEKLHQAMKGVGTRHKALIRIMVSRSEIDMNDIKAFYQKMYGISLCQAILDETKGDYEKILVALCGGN
Chain of CD43 (sialophorin) (human) (P16150 20-400): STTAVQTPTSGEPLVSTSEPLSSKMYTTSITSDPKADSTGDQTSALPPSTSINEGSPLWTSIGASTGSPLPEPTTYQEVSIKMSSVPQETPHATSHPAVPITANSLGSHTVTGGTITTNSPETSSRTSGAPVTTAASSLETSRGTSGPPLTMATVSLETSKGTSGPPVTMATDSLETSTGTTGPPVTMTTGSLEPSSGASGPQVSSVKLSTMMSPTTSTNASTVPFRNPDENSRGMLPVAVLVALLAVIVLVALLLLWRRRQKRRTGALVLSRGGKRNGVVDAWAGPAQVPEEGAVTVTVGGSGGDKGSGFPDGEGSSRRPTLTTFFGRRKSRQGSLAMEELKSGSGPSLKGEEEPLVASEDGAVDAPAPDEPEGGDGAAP
Chain of mucin-1 (MUC1) (human) (P15941 24-1255): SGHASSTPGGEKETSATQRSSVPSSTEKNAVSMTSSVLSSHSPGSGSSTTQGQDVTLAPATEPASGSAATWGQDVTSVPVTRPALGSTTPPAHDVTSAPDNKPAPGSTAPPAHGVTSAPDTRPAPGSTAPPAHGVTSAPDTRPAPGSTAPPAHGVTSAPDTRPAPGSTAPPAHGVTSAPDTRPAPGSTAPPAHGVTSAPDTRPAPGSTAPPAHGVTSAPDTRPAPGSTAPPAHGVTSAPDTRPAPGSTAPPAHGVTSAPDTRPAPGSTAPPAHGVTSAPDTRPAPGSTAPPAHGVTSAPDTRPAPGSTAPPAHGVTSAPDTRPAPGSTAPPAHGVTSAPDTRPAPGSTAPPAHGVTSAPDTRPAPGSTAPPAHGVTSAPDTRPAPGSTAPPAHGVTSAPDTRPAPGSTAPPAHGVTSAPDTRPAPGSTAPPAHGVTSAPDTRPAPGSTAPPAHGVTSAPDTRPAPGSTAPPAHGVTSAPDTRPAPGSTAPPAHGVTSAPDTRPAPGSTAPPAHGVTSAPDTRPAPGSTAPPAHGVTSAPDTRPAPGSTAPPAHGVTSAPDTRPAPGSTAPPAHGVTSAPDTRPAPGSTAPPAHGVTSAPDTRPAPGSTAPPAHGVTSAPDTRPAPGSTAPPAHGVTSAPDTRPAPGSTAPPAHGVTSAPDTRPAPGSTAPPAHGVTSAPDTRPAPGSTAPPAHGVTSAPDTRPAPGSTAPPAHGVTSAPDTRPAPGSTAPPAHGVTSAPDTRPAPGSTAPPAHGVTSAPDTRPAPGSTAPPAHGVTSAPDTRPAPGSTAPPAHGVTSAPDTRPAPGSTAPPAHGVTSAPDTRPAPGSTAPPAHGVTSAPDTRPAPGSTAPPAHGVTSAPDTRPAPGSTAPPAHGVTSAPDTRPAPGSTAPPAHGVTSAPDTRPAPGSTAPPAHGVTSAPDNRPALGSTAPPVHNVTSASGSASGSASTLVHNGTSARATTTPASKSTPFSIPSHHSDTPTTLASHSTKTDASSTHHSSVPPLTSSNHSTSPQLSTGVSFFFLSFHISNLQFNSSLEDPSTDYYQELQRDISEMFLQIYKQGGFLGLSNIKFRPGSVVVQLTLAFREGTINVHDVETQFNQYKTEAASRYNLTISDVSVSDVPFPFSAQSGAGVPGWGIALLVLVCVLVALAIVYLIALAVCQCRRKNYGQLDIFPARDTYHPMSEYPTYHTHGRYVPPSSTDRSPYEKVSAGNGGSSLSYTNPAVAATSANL
Chain of CD98 (human) (P08195 103-630): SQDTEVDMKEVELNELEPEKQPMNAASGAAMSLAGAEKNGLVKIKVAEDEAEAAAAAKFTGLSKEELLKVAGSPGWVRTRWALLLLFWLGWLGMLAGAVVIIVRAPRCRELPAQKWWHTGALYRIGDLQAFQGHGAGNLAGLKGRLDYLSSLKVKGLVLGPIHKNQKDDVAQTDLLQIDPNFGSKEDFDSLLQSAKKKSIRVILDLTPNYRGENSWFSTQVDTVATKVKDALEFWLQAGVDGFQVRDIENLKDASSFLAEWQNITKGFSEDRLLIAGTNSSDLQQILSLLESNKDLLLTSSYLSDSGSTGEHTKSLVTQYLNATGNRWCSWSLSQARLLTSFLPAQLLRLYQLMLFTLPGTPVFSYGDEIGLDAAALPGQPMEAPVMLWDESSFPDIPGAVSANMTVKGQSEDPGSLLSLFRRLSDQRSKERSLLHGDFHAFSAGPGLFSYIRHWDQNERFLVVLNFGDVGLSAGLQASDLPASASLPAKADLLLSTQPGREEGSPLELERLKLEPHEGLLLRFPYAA
Chain of CD29 (human) (P05556 21-798): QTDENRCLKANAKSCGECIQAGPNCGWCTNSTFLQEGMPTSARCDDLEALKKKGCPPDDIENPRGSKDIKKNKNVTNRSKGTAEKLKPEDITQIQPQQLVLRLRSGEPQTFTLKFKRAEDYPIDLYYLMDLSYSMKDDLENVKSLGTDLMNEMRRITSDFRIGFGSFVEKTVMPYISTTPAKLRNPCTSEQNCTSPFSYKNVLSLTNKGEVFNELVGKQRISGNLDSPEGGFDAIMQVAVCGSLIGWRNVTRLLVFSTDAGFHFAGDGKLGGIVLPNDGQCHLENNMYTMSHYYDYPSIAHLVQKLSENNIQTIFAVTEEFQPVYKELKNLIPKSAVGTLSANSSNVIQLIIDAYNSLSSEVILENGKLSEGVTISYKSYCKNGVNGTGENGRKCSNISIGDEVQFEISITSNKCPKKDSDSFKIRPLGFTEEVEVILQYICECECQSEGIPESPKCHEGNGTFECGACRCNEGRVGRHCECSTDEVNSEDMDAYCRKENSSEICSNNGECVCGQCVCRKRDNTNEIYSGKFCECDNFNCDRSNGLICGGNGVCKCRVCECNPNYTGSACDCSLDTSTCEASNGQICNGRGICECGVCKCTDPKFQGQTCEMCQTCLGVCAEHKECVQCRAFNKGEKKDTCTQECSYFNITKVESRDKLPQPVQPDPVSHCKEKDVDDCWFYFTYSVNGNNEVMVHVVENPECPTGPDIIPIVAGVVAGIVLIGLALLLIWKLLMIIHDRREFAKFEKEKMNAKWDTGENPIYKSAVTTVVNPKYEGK
Chain of CD30 (human) (P28908 19-595): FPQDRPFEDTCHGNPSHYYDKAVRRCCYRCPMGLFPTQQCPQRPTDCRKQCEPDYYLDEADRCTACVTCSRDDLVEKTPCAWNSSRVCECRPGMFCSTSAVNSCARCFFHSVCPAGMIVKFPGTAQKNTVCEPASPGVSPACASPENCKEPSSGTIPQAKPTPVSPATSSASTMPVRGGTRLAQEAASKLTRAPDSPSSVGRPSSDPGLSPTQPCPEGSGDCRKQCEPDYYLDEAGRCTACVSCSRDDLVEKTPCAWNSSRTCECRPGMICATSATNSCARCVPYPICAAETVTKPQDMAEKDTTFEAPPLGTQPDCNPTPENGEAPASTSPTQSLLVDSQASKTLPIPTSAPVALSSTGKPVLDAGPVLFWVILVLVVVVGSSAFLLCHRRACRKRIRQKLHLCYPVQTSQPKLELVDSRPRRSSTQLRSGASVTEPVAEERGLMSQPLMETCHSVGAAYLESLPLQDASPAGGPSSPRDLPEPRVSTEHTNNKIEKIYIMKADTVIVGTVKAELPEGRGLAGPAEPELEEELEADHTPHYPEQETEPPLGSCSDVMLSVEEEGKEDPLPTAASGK
Chain of CD46 (human) (P15529 35-392): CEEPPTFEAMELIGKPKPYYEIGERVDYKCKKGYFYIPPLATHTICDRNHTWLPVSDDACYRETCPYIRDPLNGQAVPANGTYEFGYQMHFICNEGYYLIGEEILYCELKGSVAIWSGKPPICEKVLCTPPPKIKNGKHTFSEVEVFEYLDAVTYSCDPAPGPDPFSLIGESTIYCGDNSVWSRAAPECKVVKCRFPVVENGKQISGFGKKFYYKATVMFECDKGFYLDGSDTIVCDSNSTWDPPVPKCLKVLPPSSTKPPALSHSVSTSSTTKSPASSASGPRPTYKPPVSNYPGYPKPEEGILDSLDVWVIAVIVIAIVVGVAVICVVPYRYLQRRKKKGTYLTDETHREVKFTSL
Chain of CD236 (human) (P04921 whole entry): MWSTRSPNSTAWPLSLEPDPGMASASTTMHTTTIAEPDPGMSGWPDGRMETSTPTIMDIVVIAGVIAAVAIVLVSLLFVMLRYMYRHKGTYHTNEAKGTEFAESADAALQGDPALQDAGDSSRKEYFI

With `COC(=O)c1ccc([C@@H]2c3[nH]c4ccccc4c3C[C@@H](C(=O)OC)N2C(=O)CCl)cc1` [RSL3], the “Enhancement of ferroptosis by StcE co-treatment” value in test [1] (dose response ± 50 nM StcE, OVCAR-3) was “no enhancement of ferroptosis”. On to `CCOC(=O)c1ccc(NC2CCCCC2)c(N)c1` [ferrostatin-1], for which, in test [1] (1 μM ferrostatin-1), the “Suppression of erastin2 + StcE induced ferroptosis” value was “fully suppressed”. In the case of “Anti-MUC1/episialin antibody, clone 214D4 (EMD Millipore)”, the Maximum MFI observed in binding assay in test [2] worked out at 328 AU. Compound “Isotype control antibody, clone MOPC-21 (BioLegend)” showed a Maximum MFI observed in binding assay in test [3] of 0.1 AU. “Mouse IgG1 anti-human CD340 (erbB2/HER-2) antibody, clone 24D2 (BioLegend)”: in test [4], the Maximum MFI observed in binding assay amounted to 311 AU.

Compound “anti-Annexin A1 antibody, clone 74/3 (BioLegend)” registered a Maximum MFI observed in binding assay in test [5] of 1.3 AU. The compound “anti-CD29 antibody, clone P5D2 (BioLegend)” registered a Maximum MFI observed in binding assay in [6] of 23.7 AU. Compound “anti-CD30 antibody, clone BY88 (BioLegend)” had a Maximum MFI observed in binding assay in test [7] of 9.8 AU. Turning to “anti-CD43 antibody, clone CD43-10G7 (BioLegend)”, the Maximum MFI observed in binding assay in [8] was 160 AU. In test [9], “anti-CD46 antibody, clone TRA-2-10 (BioLegend)” gave a Maximum MFI observed in binding assay of 64.9 AU. For the compound “anti-CD98 antibody, clone MEM-108 (BioLegend)”, in test [10], the Maximum MFI observed in binding assay worked out at 234 AU. In [11], “anti-CD236 antibody, clone QA20A41 (BioLegend)” showed a Maximum MFI observed in binding assay of 188 AU. As for “ddStcE^W366A (ΔC, ΔINS and W366A), engineered StcE (from UniProt O82882 36-803) (enzyme)”, the Kd in test [12] was 2 µM. That is a single-digit micromolar value.
